Experiments:
CD40 = biological target: T1, CD40 (Homo sapiens, UniProt P25942); experiment: CD40 antagonistic activity in primary CLL cells: pre-incubation, then rmCD40L for 48 h; format: cell-based; conditions: pre-incubation, then rmCD40L for 48 hours; FIG. 8A-C
T1 construct: Primary chronic lymphocytic leukemia (CLL) cells express CD40 on the cell surface; endogenous in cells; host or cells: primary CLL PBMCs from untreated CLL patients
Description: PBMCs (≥90% CD5^+CD19^+) from untreated CLL patients were obtained and cryopreserved as described in […]. Thawed cells were kept in complete IMDM.
To test whether the VHH antagonizes CD40 stimulation, primary CLL PBMCs were pre-incubated with VHH or medium control for 30 minutes at 37° C. and subsequently cultured for 48 hours in the presence of rmCD40L (100 ng/mL).
After 48 hours, cells were analyzed by flow cytometry as described in Example 4.
To assess whether binding of the VHH has antagonistic effects, primary CLL PBMCs were pre-incubated with V19S76K-5C8 or medium control and then cultured with rmCD40L for 48 hours and analyzed by flow cytometry as described in Example 5.

Vγ9Vδ2-T cells = experiment: Cytokine and degranulation assay: Vγ9Vδ2-T cell lines with CD40+ CII cells; format: cell-based, human; conditions: for degranulation of Vγ9Vδ2-T cells (CD107a): FIG. 10A
Description: (§1) CD40^+ CII cells and Vγ9Vδ2-T cells were grown as described in Example 7.
Vγ9Vδ2-T cell lines were incubated with V19S76K-5C8 or medium control for 30 minutes at 37° C. Subsequently, Vγ9Vδ2-T cells were cocultured with CII cells for 4 hours in a 1:1 ratio in the presence of Brefeldin A (10 μg/mL; B7651, Merck), GolgiStop (554724) and PECy7-conjugated anti-CD107a (561348, both BD Biosciences). Cells were then washed and surface staining was performed with Fixable Viability Dye eFluor506 (65-0866-14), AF700-conjugated anti-CD3 (56-0038-82, both Thermo Fisher Scientific) and FITC-conjugated anti-Vγ9-TCR (IM1463, Beckman Coulter) antibodies. Cytofix/Cytoperm reagent (554722) was used for detection of intracellular cytokines with BUV395-conjugated anti-IFN-γ (563563), […] anti-TNF-α (563418, all BD Biosciences) and PE/Dazzle594-conjugated anti-IL-2 (500343, Biolegend).
Samples were measured on an LSRFortessa cytometer (BD Biosciences) and analyzed with Flowjo MacV10.

CD40+ CII target cells = experiment: Cytotoxicity assay: CII target cells with Vγ9Vδ2-T cells; format: cell-based, human; conditions: 1:1 ratio
Description: as §1
CII target cells were labeled with carboxyfluorescein succinimidyl ester (CFSE; C1157, Thermo Fisher Scientific) and incubated with VHH or medium control for 30 minutes at 37° C. Target cells were then cocultured overnight with Vγ9Vδ2-T cell lines in a 1:1 ratio.
Viability was measured as described in Example 4.

[1] = tested on: CD40-transfected HEK293T cells; experiment: Cytotoxicity assay: CD40-transfected HEK293T target cells with Vγ9Vδ2-T cells; format: cell-based, human
Description: HEK293T cells, either wildtype (WT) or transfected with human CD40, were grown as described in Example 2. Vγ9Vδ2-T cells were grown as described in Example 7.
The cytotoxicity experiment, viability measurement and flow cytometry were performed as described in Example 12.

[2] = tested on: Vγ9Vδ2-T cells from CLL patients; experiment: Cytokine and degranulation assay: autologous Vγ9Vδ2-T cells from CLL patients; format: cell-based, human; conditions: 10 nM, overnight with autologous CLL cells
Description: (§2) PBMCs from CLL patients were obtained, cryopreserved and thawed as described in Example 3.
CLL PBMCs were partially depleted of CD19^+ CLL cells using magnetic beads (130-050-301, Miltenyi Biotec. ±50% of the PBMCs were CD19^+ after CD19 depletion). PBMCs were then cultured overnight with V19S76K-5C8 (10 nM) or medium control in the presence of Brefeldin A, GolgiStop and anti-CD107a to measure cytokine production and degranulation as described in Example 11. In contrast to Example 11, surface staining included PE-conjugated anti-Vγ9-TCR (2256535, Sony) and FITC-conjugated goat-anti-Ilama IgG-heavy and light chain antibodies (A160-100F, Bethyl Laboratories Inc.)

CD19+ CLL cells = experiment: Cytotoxicity of CLL cells by autologous CD3+ cells, live cell count with counting beads; format: cell-based, human; conditions: 10 nM, overnight, CD3+:CD19+ 10:1, autologous; FIG. 16
Description: as §2
CD3^+ cells were isolated from CLL PBMCs using magnetic beads (purity ≥93%; 130-050-101, Miltenyi Biotec) to simultaneously enrich for Vγ9Vδ2-T cells. CD19^+ CLL cells were isolated from the same sample using magnetic beads (purity ≥93%; 130-050-301, Miltenyi Biotec). CD3^+ cells were cultured overnight with CD19^+ CLL cells in a 10:1 ratio with V19S76K-5C8 (10 nM) or medium control.
Samples were incubated with Fixable Viability Dye eF780 (65-0865-14), PerCPeF710-conjugated anti-CD3), PE-conjugated anti-CD5 (12-0059-42, all Thermo Fisher Scientific) and FITC-conjugated anti-CD20 (A07772, Beckman Coulter) antibodies. Live CLL cells were then quantified using counting beads (01-1234-42, Thermo Fisher Scientific) on a FACSCanto cytometer (BD Biosciences).

primary MM cells = experiment: Lysis of primary multiple myeloma cells by healthy donor-derived Vγ9Vδ2-T cells; format: cell-based, human; conditions: overnight with healthy donor-derived Vγ9Vδ2-T cells, 1:1; FIG. 17B
Description: FIG. 17: V19S76K-5C8 is active against primary multiple myeloma. (A) Example of CD40 expression on primary MM cells, as detected using anti-CD40 PE antibody, clone MAB89, Beckman Couter, IM1936U. Representative histograms of 4 donors (B) Bone marrow of MM patients was cultured overnight in the presence or absence of healthy donor-derived Vγ9Vδ2-T cells in a 1:1 (Vγ9Vδ2-T:plasma cell) ratio in the absence or presence of V19S76K-5C8 (10 μM or 10 nM). Live plasma cells were quantified by flow cytometry using counting beads (n=5). (C, D) Mononuclear cells from the bone marrow of MM patients were cultured overnight with V19S76K-5C8 (VHH; 10 nM), aminobisphosphonate (ABP; 10 μM zoledronic acid (positive control)) or medium control in the presence of brefeldin, monensin and anti-CD107a to measure (C) cytokine production and (D) degranulation by flow cytometry (n=6). Data are presented as mean and SEM. *P<0.05, **P<0.01. (B-D: repeated-measures one-way ANOVA followed by Dunnett's post hoc test compared to condition without antibody).
Because CD40 is also expressed on primary multiple myeloma (MM) cells (Pellat-Deceunynck et al. (1994) Blood 84:2597) (FIG. 17A) and CD40 stimulation exerts various biological effects, including proliferation of MM cells, we assessed the efficacy of V19S76K-5C8 in primary bone marrow samples from MM patients.

T1 sequence (P25942 21-277): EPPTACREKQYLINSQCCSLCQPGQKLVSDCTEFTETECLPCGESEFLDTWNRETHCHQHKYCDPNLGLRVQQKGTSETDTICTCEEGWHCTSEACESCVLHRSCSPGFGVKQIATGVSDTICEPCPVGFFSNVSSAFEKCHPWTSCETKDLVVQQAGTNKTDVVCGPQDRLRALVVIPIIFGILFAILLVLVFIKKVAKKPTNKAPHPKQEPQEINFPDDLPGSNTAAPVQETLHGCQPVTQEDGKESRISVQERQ

B1: V19S76K-5C8: tag-less bispecific anti-CD40-anti-Vγ9Vδ2-TCR VHH, SEQ ID NO:23 (protein)
VHH: QVQLQESGGGLVQAGGSLRLSCAASGRTFGRSAMGWFRQAPGKEREFVAAIGTRGGSTKYADSVKGRFTISTDNAKNTVYLQMDSLKPEDTAVYRCAVRGPGYPSAAIFQDEYHYWGQGTQVTVSSGGGGSEVQLVESGGGLVQAGGSLRLSCAASGRPFSNYAMGWFRQAPGKEREFVAAISWSGGSTSYADSVKGRFTISRDNAKNTVYLQMNSPKPEDTAIYYCAAQFSGADYGFGRLGIRGYEYDYWGQGTQVTVSS
modifications: antibody sequence
prevention of the effects of CD40 stimulation (CD80, CD86 and CD95 expression) (CD40): prevented the effects of CD40 stimulation in a dose-dependent manner | degranulation of Vγ9Vδ2-T cells (CD107a) (Vγ9Vδ2-T cells; CD40+ CII cells not present): did not induce this level of degranulation | degranulation of Vγ9Vδ2-T cells (CD107a) (Vγ9Vδ2-T cells; with CD40+ CII cells, 1:1 ratio, 4 hours): the large majority of Vγ9Vδ2-T cells degranulated | IFN-γ, TNF-α and IL-2 production by Vγ9Vδ2-T cells (Vγ9Vδ2-T cells; with or without CD40+ CII cells, FIG. 10B-D): A similar pattern was observed | EC50 (CD40+ CII target cells; lysis of CII target cells with Vγ9Vδ2-T cells, FIG. 11B, read-out: half maximal effective concentration): 9.1 µM | lysis of CII target cells (CD40+ CII target cells; overnight with Vγ9Vδ2-T cells, FIG. 11A): increased markedly | lysis of CD40-transfected HEK293T cells ([1]; overnight with Vγ9Vδ2-T cells, 1:1 ratio, FIG. 12): strongly enhanced | lysis of either WT or CD40-transfected HEK293T cells ([1]; without Vγ9Vδ2-T cells): did not induce lysis | production of IFN-γ, TNF-α and IL-2 by Vγ9Vδ2-T cells from CLL patients ([2]; FIG. 15A-C): produced the cytokines IFN-γ | Vγ9Vδ2-T cell degranulation (CD107a expression) ([2]; FIG. 15D): induced Vγ9Vδ2-T cell degranulation | live CLL cells versus medium control (CD19+ CLL cells): Fewer CLL cells were alive | lysis of primary MM cells (primary MM cells): lysed primary MM cells
